Reference: publication PMC10939263

What was measured:
C1-fused SRC kinases = assay: split reporter (BiFC, NanoBiT); Gaussia princeps luciferase complementation assay in human HEK293T cells; Gluc2 at the N terminus of SKAP1 or SKAP2 (N2), Gluc1 at the N terminus (N1) or C terminus (C1) of the SRC kinase; 100 ng plasmid pair, PEI; luminescence read in lysate one day later; normalized luminescence ratio (NLR), given relative to wild type or to SKAP2
FGR, C1-fused = FGR, C1-fused (UniProt P09769); assay: luciferase complementation assay (normalized luciferase ratio, NLR); conditions: HEK293T cells; one experiment; read off a plot
BLK, C1-fused = BLK, C1-fused (UniProt P51451); assay: as above; conditions: HEK293T cells; one experiment; read off a plot
[1] = target: HCK wild type, C1-fused, P08631-2; assay: as above; conditions: HEK293T cells; one experiment; read off a plot
[2] = target: FYN (isoform without exon 7), C1-fused, P06241-3; assay: as above; conditions: HEK293T cells; one experiment; read off a plot
LYN, C1-fused = LYN, C1-fused (UniProt P07948); assay: as above; conditions: HEK293T cells; one experiment; read off a plot
[3] = target: FYN (isoform without exon 7), N1-fused, P06241-3; assay: as above; conditions: HEK293T cells; one experiment; read off a plot
LYN, N1-fused = LYN, N1-fused (UniProt P07948); assay: as above; conditions: HEK293T cells; one experiment; read off a plot
BLK, N1-fused = BLK, N1-fused (UniProt P51451); assay: as above; conditions: HEK293T cells; one experiment; read off a plot
FRK, C1-fused = FRK, C1-fused (UniProt P42685); assay: as above; conditions: HEK293T cells; one experiment; read off a plot
LCK wild type, C1-fused = LCK wild type, C1-fused (UniProt P06239); assay: as above; conditions: HEK293T cells; one experiment; read off a plot

Substance | SKAP2 normalized NLR, mean over C1-fused SRC kinases (against wild type SKAP2) (C1-fused SRC kinases) | ratio to parent (FGR, C1-fused) | ratio to parent (BLK, C1-fused) | ratio to parent [1] | ratio to parent [2] | ratio to parent (LYN, C1-fused) | ratio to parent [3] | ratio to parent (LYN, N1-fused) | ratio to parent (BLK, N1-fused) | ratio to parent (FRK, C1-fused) | ratio to parent (LCK wild type, C1-fused)
SRC kinase associated phosphoprotein 1 (SKAP1), wild type, N2-fused (from UniProt Q86WV1 1-359) (natural protein) | 0.39 | – | – | – | – | – | – | – | – | – | –
SRC kinase associated phosphoprotein 1 (SKAP1), wild type, N2-fused (from UniProt Q86WV1) DIM- | – | 1.3 | 0.9 | 1.3 | 0.78 | 1.2 | 0.66 | 0.93 | 0.7 | 0.64 | 0.68
